The values below are quoted from earlier work in PMC2709459 (Biochimica et biophysica acta, 2008).

For this series, the target named is C5aR. The following applies: C5aR in transfected CHO cells.

B1: C5a: complement C5a fragment, anaphylatoxin ligand of C5aR (protein, UniProt P01031 678-751, looked up)
C5a anaphylatoxin: TLQKKIEEIAAKYKHSVVKKCCYDGACVNNDETCEQRAARISLGPRCIKAFTECCVVASQLRANISHKDMQLGR
modifications: C5a anaphylatoxin
The Kd is the equilibrium constant for the complex coming apart. Turning to B1, the dissociation constant (Kd) is 10 nM.
